Source: article PMC3435532

Legend:
[1] = system: FLI1-CTD (C-terminal FLI1 domain, non-acetylated); experiment: EMSA; details: Non-radioactive EMSA: 1 ug protein, 500 fmol biotinylated dsDNA, binding buffer per Uren et al. 2004 (not given); 6% gel in 0.5x TBE; protein stock 20 mM …
acetyl-FLI1-CTD = experiment: EMSA; details: acetylated by CBP HAT; 1 ug protein, 500 fmol probe; Non-radioactive EMSA: 1 ug protein, 500 fmol biotinylated dsDNA, binding buffer per Uren et al. 2004 (not given); 6% gel in 0.5x TBE; protein stock 20 mM …

How did the binding signal (fold (reference, non-acetylated)) [1] turn out when “ets-binding site oligonucleotide (wild type)” was run?
The binding signal (fold (reference, non-acetylated)) was 1.

What about the binding signal (fold vs non-acetylated FLI1-CTD) (acetyl-FLI1-CTD) of the same substance?
Its binding signal (fold vs non-acetylated FLI1-CTD) is 4.
